From PMC11707020

Biological target: USP25 (UniProt Q9UHP3)
Assay: co-immunoprecipitation, western blot
Settings: reference: HA-STAT3 wild type; sites Y705

“STAT3 (from UniProt P40763) HA-STAT3 Y705F” was tested, and the “binding against the reference” value was “weaker”.
